The test system of one experiment is MDA-MB-468 xenograft. The experiment is described as follows: Tumour xenograft. The experiment is classed as in vivo, mice. The note with it: triple negative breast cancer, low B7-H4. As to the method:
(§1) Tumour xenografts were prepared on mice using the following cancer cell lines: • OVCAR4 (Cisplatin refractory ovarian cancer; high B7-H4 expression) • HCC1569 (HER2 positive breast cancer; heterogeneous B7-H4 expression) • MDA-MB-468 (Triple negative breast cancer; low B7-H4 expression)

A further experiment has as its system HCC1569 xenograft. The experiment is described as follows: Tumour xenograft. The experiment is classed as in vivo, mice. As to conditions: HER2 positive breast cancer, heterogeneous B7-H4. As for the experimental part:
as §1

Another experiment has as its system OVCAR4 xenograft. As to the kind of experiment: Tumour xenograft. Format: in vivo, mice. The note with it: cisplatin refractory ovarian cancer, high B7-H4. As for the experimental part:
as §1

A further experiment concerns SKBR-3 cells. The experiment is described as follows: Caspase 3/7 activity (IncuCyte). The experiment is classed as cell-based, human. As to the method: SKBR-3 cells were treated with E02-GL-SG3249, SG3199 and Olaparib (control) and monitored for caspase 3/7 activity (e.g. apoptosis) by IncuCyte.
Experiment [1] deals with HT29-huB7-H4 Clone 26 cells. As to the kind of experiment: Confocal colocalization with LAMP1 and EEA1. The experiment is classed as cell-based, human. As to conditions: 24 hours, 5 μg/mL. An excerpt:
Confocal microscopy was used to determine intracellular trafficking of E02-INT by measuring co-localization with the early endosomal marker, Early Endosome Antigen 1 (EEA1) and the lysosomal marker, lysosomal-associated membrane protein 1 (LAMP1).

The target of a further experiment is T1, human B7-H4 (Homo sapiens, UniProt Q7Z7D3).
T1 construct: Human B7H4 ECD; FlagHis10 or FcHis6 (either; equivalent data); made in house
T1 sequence (Q7Z7D3 25-259 limits assumed): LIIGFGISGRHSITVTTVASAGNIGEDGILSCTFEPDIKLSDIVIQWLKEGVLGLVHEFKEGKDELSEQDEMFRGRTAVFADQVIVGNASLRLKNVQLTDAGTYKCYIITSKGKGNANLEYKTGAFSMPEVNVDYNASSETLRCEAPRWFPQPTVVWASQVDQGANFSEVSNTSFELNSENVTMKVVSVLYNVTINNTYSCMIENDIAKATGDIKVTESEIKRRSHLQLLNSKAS
As to the kind of experiment: ELISA comparison with 1D11. Format: binding. As to conditions: E02-GL compared with 1D11. As to the method:
The binding of the anti-B7-H4 antibodies (e.g. intermediate ZY0EQD-E02-GL and anti-B7-H4 mAB D11) to B7-H4 (e.g. human and mouse B7-H4) was measured by ELISA. Recombinant B7-H4-Fc (e.g. Human B7-H4-Fc and mouse B7-H4-Fc) proteins were diluted into DPBS to give 5 ug/ml solution. 50 μL of the diluted stocks was then added Nunc Maxisorp 96 well plates. 50 μL/well DPBS was added to control wells. The antigens were allowed to adsorb to the plates overnight at 4° C., washed once with DPBS and incubated with blocking buffer (3% w/v Marvel in DPBS) at room temperature for 1 hour. The plates were then washed once with PBS and incubated for 1 hour with 6.4 pM-100 nM anti-B7-H4 antibody (e.g. intermediate ZY0EQD-E02-GL or anti-B7-H4 mAb D11) diluted in DPBS containing 1% BSA, 0.3% Triton X-100. The plates were then washed three times with PBS containing 0.1% Tween and incubated with peroxidase-conjugated goat anti-human light chain antibody (Sigma Aldrich, Poole, UK) for 1 hour at room temperature. The plates were then washed five times with PBS containing 0.1% Tween. Following a 5-minute incubation with TMB peroxidase substrate, the reaction was stopped by the addition of 0.5 M H2SO4. Absorbance at 450 nm (A450) was measured using an Envision multilabel plate reader (Perkin Elmer, Seer Green, UK). […]

The test system of a further experiment is HEK 293 JI hB7H4 pool. As to the kind of experiment: E02-GL MESF on cell line. Format: cell-based. The note with it: has some negative cells in pool.
In another experiment the target is T2, human B7-H4 antigen (Homo sapiens, UniProt Q7Z7D3).
T2 sequence (Q7Z7D3 25-282): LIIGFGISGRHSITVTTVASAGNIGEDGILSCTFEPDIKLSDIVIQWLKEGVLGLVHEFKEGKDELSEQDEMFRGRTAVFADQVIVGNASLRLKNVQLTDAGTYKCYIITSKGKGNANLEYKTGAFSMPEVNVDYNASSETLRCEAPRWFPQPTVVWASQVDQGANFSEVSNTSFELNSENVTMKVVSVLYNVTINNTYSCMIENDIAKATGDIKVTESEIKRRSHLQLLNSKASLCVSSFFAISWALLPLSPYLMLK
The experiment is described as follows: SPR, antibody capture method. The experiment is classed as binding. As for the experimental part: To assess whether conjugation of the topoisomerase 1 linker-warhead affected binding properties of the E02-INT antibody, the binding affinity of E02-INT and E02-GL-SG3932 were measured using a DELFIA-ELISA method and an SPR method. […] The kinetic rate constants (kon and koff) and equilibrium dissociation constants (KD) of E02-INT and E02-GL-SG3932 for human B7-H4 antigen was also determined by SPR, using an antibody capture method.
Background: Surface plasmon resonance follows binding to a sensor surface in real time, without labels.

The subject of a further experiment is Zr75-1. The experiment is described as follows: E02-GL MESF on cell line. The experiment is classed as cell-based.
For experiment [2], the system named is MX-1 breast cancer xenograft. As to the kind of experiment: Xenograft efficacy. Format: in vivo, CB-17 SCID mice. The note with it: 10 mg/kg. As for the experimental part:
The antitumor activity of antibody intermediate E02-INT and E02-GL-SG3932 was investigated in human tumor xenograft mouse models using immunodeficient CB-17 SCID mice.
The effect of E02-GL-SG3932, the isotype-matched control ADC NIP228-SG3932, and E02-INT, the antibody intermediate of E02-GL-SG3932 was evaluated in the MX-1 breast cancer xenograft model. Animals were injected SC with MX-1 cells and after tumors grew in volume to a mean of 270 mm3, animals were randomized and each mouse received an IV injection of test or control articles.

For experiment [3], the system named is HT29-huB7-H4 Clone 4 and HT29-huB7-H4 Clone 26. The experiment is described as follows: Flow cytometry binding. The experiment is classed as cell-based, human. The text has this:
(§2) Flow cytometry was used to measure binding of antibody E02-INT and E02-GL-SG3932 to the human breast cancer cell lines MX-1 and MDA-MB-468, and to engineered HT29 colon cancer cells stably expressing human B7-H4.
(In flow cytometry, cells or beads pass a laser one at a time.)

In the next experiment the test system is MX-1 cells. As to the kind of experiment: Flow cytometry binding. Format: cell-based, human. The note with it: endogenously-expressed B7-H4.
Text: as §2

Entries after “also recorded” stand apart in the source; their conditions may differ.

B1: E02-GL-SG3249: clone E02-GL (Maia heavy chain backbone) conjugated to the PBD cytotoxin SG3249 (conjugate)
heavy: QVQLQQWGAGLLKPSETLSLACTVYGGSFSGYYWNWIRQPPGKGLEWIGEINHSGSTSYNPSLKSRVTISVDTSKNQFSLKLSSVTAADTAVYYCARVLYNWNVDSWGQGTLVTVSSASTKGPSVFPLAPSSKSTSGGTAALGCLVKDYFPEPVTVSWNSGALTSGVHTFPAVLQSSGLYSLSSVVTVPSSSLGTQTYICNVNHKPSNTKVDKRVEPKSCDKTHTCPPCPAPELLGGPSCVFLFPPKPKDTLMISRTPEVTCVVVDVSHEDPEVKFNWYVDGVEVHNAKTKPREEQYNSTYRVVSVLTVLHQDWLNGKEYKCKVSNKALPAPIEKTISKAKGQPREPQVYTLPPSREEMTKNQVSLTCLVKGFYPSDIAVEWESNGQPENNYKTTPPVLDSDGSFFLYSKLTVDKSRWQQGNVFSCSVMHEALHNHYTQKSLSLSPGK
light: DIQMTQSPSSLSASVGDRVTITCRASQDIRNDVGWYQQKPGKAPKRLIYAASRLQSGVPSRFSGSGSGTEFTLTISSLQPEDFATYYCLQHNSYPRTFGQGTKVEIKRTVAAPSVFIFPPSDEQLKSGTASVVCLLNNFYPREAKVQWKVDNALQSGNSQESVTEQDSKDSTYSLSSTLTLSKADYEKHKVYACEVTHQGLSSPVTKSFNRGEC
In the case of B1, the “tumour volume versus vehicle” value with MDA-MB-468 xenograft, in the experiment on HCC1569 xenograft and in the experiment on OVCAR4 xenograft was “significant decrease in tumour volume” each time. Besides, in the experiment with SKBR-3 cells, the “caspase 3/7 activity” value is reported as “dose dependent increase”.

B2: E02-GL: germlined ZY0EQD-E02, VH SEQ ID NO: 45, VL SEQ ID NO: 34; antibody intermediate of E02-GL-SG3932 (antibody, V domains shown)
VH: QVQLQQWGAGLLKPSETLSLACTVYGGSFSGYYWNWIRQPPGKGLEWIGEINHSGSTSYNPSLKSRVTISVDTSKNQFSLKLSSVTAADTAVYYCARVLYNWNVDSWGQGTLVTVSS
VL: DIQMTQSPSSLSASVGDRVTITCRASQDIRNDVGWYQQKPGKAPKRLIYAASRLQSGVPSRFSGSGSGTEFTLTISSLQPEDFATYYCLQHNSYPRTFGQGTKVEIK
For orientation: Kd means the concentration at which binding is half-saturated. Higher therefore signals lower affinity. For B2, the “intracellular trafficking after internalization” value in experiment [1] is on record as “trafficked to the lysosomal compartment”. In addition, in the experiment with human B7-H4, the “binding (affinity) to human B7-H4 by ELISA” value was “significantly better binding; also recorded: significantly stronger binding”. The “E02-GL MESF” value in the experiment on HEK 293 JI hB7H4 pool is listed as 2,481,266 MESF. In the experiment with human B7-H4 antigen, the “Ka” value came to 93800 M⁻¹ s⁻¹, the Kd was found to be 31.1 nM, the “Kd (s^−1)” value is 0.00292 s⁻¹ and the “Rmax (RU)” value stood at 56.8 RU. Also, the “E02-GL MESF” value in the experiment on Zr75-1 is on record as 80,699 MESF. The TGI in experiment [2] is reported as −1%. Also, the cellular binding entry in [3] was “bound similarly”. In the experiment on MX-1 cells, the cellular binding result is listed as “bound”.

The values above are taken from patent US20240239894A1, “THERAPEUTIC BINDING MOLECULES” (MedImmune Limited, priority 2020, published 2024).
